Measurements taken from patent US10077319B2, “Anti-PCSK9-GLP-1 fusions and methods for use” (MedImmune, LLC, priority 2014, dated 2018).

B1: PC9#2_GLP-1_VL: GLP-1 analogue SEQ ID NO:28 fused via linker SEQ ID NO:4 to light chain of PC9#2 (SEQ ID NO: 43) (protein)
chain: HGEGTFTSDVSSYLEEQAAKEFIAWLVKGGGGGGGSGGGGSGGGGSADIQMTQSPSSLSASVGDRVTITCKASQDVHTAVAWYQQKPGKAPKLLIYHASYRYTGVPSRFSGSGSGTDFTFTISSLQPEDIATYYCQQRYSLWRTFGQGTKLEIKR
modifications: heavy chain not cited
B2: HS9_DSB7_I23T: HS9_DSB7 with peptide point mutation I23T; SEQ ID NO: 457 (protein)
chain: HGEGTFTSDLSKQMEEECVRLFTEWLKNGGPSSGAPPPGCGGGGGSGGGGSGGGGSADIQMTQSPSSLSASVGDRVTITCQASQDVKTAVAWYQQKPGKAPKLLIYSASYRYTGVPSRFSGSGSGTDFTFTISSLQPEDIATYYCQQRYSLWRTFGQGTKLEIK
B3: HS9_DSB7_I23S: HS9_DSB7 with peptide point mutation I23S; SEQ ID NO: 458 (protein)
chain: HGEGTFTSDLSKQMEEECVRLFSEWLKNGGPSSGAPPPGCGGGGGSGGGGSGGGGSADIQMTQSPSSLSASVGDRVTITCQASQDVKTAVAWYQQKPGKAPKLLIYSASYRYTGVPSRFSGSGSGTDFTFTISSLQPEDIATYYCQQRYSLWRTFGQGTKLEIK
B4: HS9_DSB7_L26S: HS9_DSB7 with peptide point mutation L26S; SEQ ID NO: 462 (protein)
chain: HGEGTFTSDLSKQMEEECVRLFIEWSKNGGPSSGAPPPGCGGGGGSGGGGSGGGGSADIQMTQSPSSLSASVGDRVTITCQASQDVKTAVAWYQQKPGKAPKLLIYSASYRYTGVPSRFSGSGSGTDFTFTISSLQPEDIATYYCQQRYSLWRTFGQGTKLEIK
B5: HS9_DSB7_G2Y: HS9_DSB7 with peptide point mutation G2Y; SEQ ID NO: 444 (protein)
chain: HYEGTFTSDLSKQMEEECVRLFIEWLKNGGPSSGAPPPGCGGGGGSGGGGSGGGGSADIQMTQSPSSLSASVGDRVTITCQASQDVKTAVAWYQQKPGKAPKLLIYSASYRYTGVPSRFSGSGSGTDFTFTISSLQPEDIATYYCQQRYSLWRTFGQGTKLEIK
B6: HS9_DSB7_G2T: HS9_DSB7 with peptide point mutation G2T; SEQ ID NO: 446 (protein)
chain: HTEGTFTSDLSKQMEEECVRLFIEWLKNGGPSSGAPPPGCGGGGGSGGGGSGGGGSADIQMTQSPSSLSASVGDRVTITCQASQDVKTAVAWYQQKPGKAPKLLIYSASYRYTGVPSRFSGSGSGTDFTFTISSLQPEDIATYYCQQRYSLWRTFGQGTKLEIK
B7: HS9_DSB7_G2Q: HS9_DSB7 with peptide point mutation G2Q; SEQ ID NO: 447 (protein)
chain: HQEGTFTSDLSKQMEEECVRLFIEWLKNGGPSSGAPPPGCGGGGGSGGGGSGGGGSADIQMTQSPSSLSASVGDRVTITCQASQDVKTAVAWYQQKPGKAPKLLIYSASYRYTGVPSRFSGSGSGTDFTFTISSLQPEDIATYYCQQRYSLWRTFGQGTKLEIK
B8: HS9_DSB7_G2N: HS9_DSB7 with peptide point mutation G2N; SEQ ID NO: 448 (protein)
chain: HNEGTFTSDLSKQMEEECVRLFIEWLKNGGPSSGAPPPGCGGGGGSGGGGSGGGGSADIQMTQSPSSLSASVGDRVTITCQASQDVKTAVAWYQQKPGKAPKLLIYSASYRYTGVPSRFSGSGSGTDFTFTISSLQPEDIATYYCQQRYSLWRTFGQGTKLEIK
B9: HS9_DSB7_G2I: HS9_DSB7 with peptide point mutation G2I; SEQ ID NO: 449 (protein)
chain: HIEGTFTSDLSKQMEEECVRLFIEWLKNGGPSSGAPPPGCGGGGGSGGGGSGGGGSADIQMTQSPSSLSASVGDRVTITCQASQDVKTAVAWYQQKPGKAPKLLIYSASYRYTGVPSRFSGSGSGTDFTFTISSLQPEDIATYYCQQRYSLWRTFGQGTKLEIK
B10: HS9_DSB7_G2F: HS9_DSB7 with peptide point mutation G2F; SEQ ID NO: 450 (protein)
chain: HFEGTFTSDLSKQMEEECVRLFIEWLKNGGPSSGAPPPGCGGGGGSGGGGSGGGGSADIQMTQSPSSLSASVGDRVTITCQASQDVKTAVAWYQQKPGKAPKLLIYSASYRYTGVPSRFSGSGSGTDFTFTISSLQPEDIATYYCQQRYSLWRTFGQGTKLEIK
B11: HS9_DSB7_V19T: HS9_DSB7 with peptide point mutation V19T; SEQ ID NO: 453 (protein)
chain: HGEGTFTSDLSKQMEEECTRLFIEWLKNGGPSSGAPPPGCGGGGGSGGGGSGGGGSADIQMTQSPSSLSASVGDRVTITCQASQDVKTAVAWYQQKPGKAPKLLIYSASYRYTGVPSRFSGSGSGTDFTFTISSLQPEDIATYYCQQRYSLWRTFGQGTKLEIK
B12: HS9_DSB7_V19S: HS9_DSB7 with peptide point mutation V19S; SEQ ID NO: 454 (protein)
chain: HGEGTFTSDLSKQMEEECSRLFIEWLKNGGPSSGAPPPGCGGGGGSGGGGSGGGGSADIQMTQSPSSLSASVGDRVTITCQASQDVKTAVAWYQQKPGKAPKLLIYSASYRYTGVPSRFSGSGSGTDFTFTISSLQPEDIATYYCQQRYSLWRTFGQGTKLEIK
B13: HS9_DSB7_V19G: HS9_DSB7 with peptide point mutation V19G; SEQ ID NO: 455 (protein)
chain: HGEGTFTSDLSKQMEEECGRLFIEWLKNGGPSSGAPPPGCGGGGGSGGGGSGGGGSADIQMTQSPSSLSASVGDRVTITCQASQDVKTAVAWYQQKPGKAPKLLIYSASYRYTGVPSRFSGSGSGTDFTFTISSLQPEDIATYYCQQRYSLWRTFGQGTKLEIK
B14: HS9_DSB7_I23G: HS9_DSB7 with peptide point mutation I23G; SEQ ID NO: 459 (protein)
chain: HGEGTFTSDLSKQMEEECVRLFGEWLKNGGPSSGAPPPGCGGGGGSGGGGSGGGGSADIQMTQSPSSLSASVGDRVTITCQASQDVKTAVAWYQQKPGKAPKLLIYSASYRYTGVPSRFSGSGSGTDFTFTISSLQPEDIATYYCQQRYSLWRTFGQGTKLEIK
B15: HS9_DSB7_I23A: HS9_DSB7 with peptide point mutation I23A; SEQ ID NO: 460 (protein)
chain: HGEGTFTSDLSKQMEEECVRLFAEWLKNGGPSSGAPPPGCGGGGGSGGGGSGGGGSADIQMTQSPSSLSASVGDRVTITCQASQDVKTAVAWYQQKPGKAPKLLIYSASYRYTGVPSRFSGSGSGTDFTFTISSLQPEDIATYYCQQRYSLWRTFGQGTKLEIK
B16: HS9_DSB7_L26T: HS9_DSB7 with peptide point mutation L26T; SEQ ID NO: 461 (protein)
chain: HGEGTFTSDLSKQMEEECVRLFIEWTKNGGPSSGAPPPGCGGGGGSGGGGSGGGGSADIQMTQSPSSLSASVGDRVTITCQASQDVKTAVAWYQQKPGKAPKLLIYSASYRYTGVPSRFSGSGSGTDFTFTISSLQPEDIATYYCQQRYSLWRTFGQGTKLEIK
B17: HS9_DSB7_L26P: HS9_DSB7 with peptide point mutation L26P; SEQ ID NO: 463 (protein)
chain: HGEGTFTSDLSKQMEEECVRLFIEWPKNGGPSSGAPPPGCGGGGGSGGGGSGGGGSADIQMTQSPSSLSASVGDRVTITCQASQDVKTAVAWYQQKPGKAPKLLIYSASYRYTGVPSRFSGSGSGTDFTFTISSLQPEDIATYYCQQRYSLWRTFGQGTKLEIK
B18: HS9_DSB7_L26N: HS9_DSB7 with peptide point mutation L26N; SEQ ID NO: 464 (protein)
chain: HGEGTFTSDLSKQMEEECVRLFIEWNKNGGPSSGAPPPGCGGGGGSGGGGSGGGGSADIQMTQSPSSLSASVGDRVTITCQASQDVKTAVAWYQQKPGKAPKLLIYSASYRYTGVPSRFSGSGSGTDFTFTISSLQPEDIATYYCQQRYSLWRTFGQGTKLEIK
B19: HS9_DSB7_L26Q: HS9_DSB7 with peptide point mutation L26Q; SEQ ID NO: 465 (protein)
chain: HGEGTFTSDLSKQMEEECVRLFIEWQKNGGPSSGAPPPGCGGGGGSGGGGSGGGGSADIQMTQSPSSLSASVGDRVTITCQASQDVKTAVAWYQQKPGKAPKLLIYSASYRYTGVPSRFSGSGSGTDFTFTISSLQPEDIATYYCQQRYSLWRTFGQGTKLEIK
B20: HS9_DSB7_L26M: HS9_DSB7 with peptide point mutation L26M; SEQ ID NO: 466 (protein)
chain: HGEGTFTSDLSKQMEEECVRLFIEWMKNGGPSSGAPPPGCGGGGGSGGGGSGGGGSADIQMTQSPSSLSASVGDRVTITCQASQDVKTAVAWYQQKPGKAPKLLIYSASYRYTGVPSRFSGSGSGTDFTFTISSLQPEDIATYYCQQRYSLWRTFGQGTKLEIK
B21: HS9_DSB7_L26H: HS9_DSB7 with peptide point mutation L26H; SEQ ID NO: 468 (protein)
chain: HGEGTFTSDLSKQMEEECVRLFIEWHKNGGPSSGAPPPGCGGGGGSGGGGSGGGGSADIQMTQSPSSLSASVGDRVTITCQASQDVKTAVAWYQQKPGKAPKLLIYSASYRYTGVPSRFSGSGSGTDFTFTISSLQPEDIATYYCQQRYSLWRTFGQGTKLEIK

These molecules were tested against human GLP-1 receptor (Homo sapiens, UniProt P43220) (assay: cAMP production assay in CHO cells expressing human GLP-1 receptor). Settings: Table 13; EC50 relative to GLP1-Fc.
human GLP-1 receptor, sequence (P43220 24-463): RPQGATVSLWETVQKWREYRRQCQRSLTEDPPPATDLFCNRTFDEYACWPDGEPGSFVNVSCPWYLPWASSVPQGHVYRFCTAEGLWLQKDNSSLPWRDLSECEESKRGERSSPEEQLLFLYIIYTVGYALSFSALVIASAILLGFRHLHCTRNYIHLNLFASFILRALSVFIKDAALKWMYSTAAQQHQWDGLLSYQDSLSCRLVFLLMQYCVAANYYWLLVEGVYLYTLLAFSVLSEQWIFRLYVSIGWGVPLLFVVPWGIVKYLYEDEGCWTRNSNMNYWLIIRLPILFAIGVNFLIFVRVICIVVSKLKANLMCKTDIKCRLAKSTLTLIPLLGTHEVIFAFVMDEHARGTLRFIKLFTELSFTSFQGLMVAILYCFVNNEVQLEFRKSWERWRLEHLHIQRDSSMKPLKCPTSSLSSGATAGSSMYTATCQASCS
Format: cell-based
Experimental: Low protein binding 384-well plates (Greiner) were used to perform eleven 1 in 4 serial dilutions of test compound that were made in assay medium (0.1% bovine serum albumin in Hanks Balanced Salt Solution (GIBCO or Sigma), containing 0.5 mM IBMX (Sigma)). All sample dilutions were made in duplicate. […] Cells were then re-suspended in assay buffer at the optimized concentration of 1×10^5 cells/mL and dispensed at 5 uL per well to black shallow-well u-bottom 384-well plates (Corning). 5 μL of test compound was transferred from the dilution plate to the cell plate and incubated at room temperature for 30 minutes. cAMP levels were measured the cAMP dynamic 2 HTRF kit (Cisbio), following the two step protocol as per manufacturer's recommendations. Briefly, anti-cAMP cryptate (donor fluorophore) and cAMP-d2 (acceptor fluorophore) were made up separately by diluting each 1/20 in conjugate & lysis buffer provided in the kit. 5 uL of anti-cAMP cryptate was added to all wells of the assay plate and 5 uL of cAMP-d2 added to all wells except non-specific binding wells, to which only conjugate and lysis buffer was added. […] Data was transformed to % Delta F as described in manufacturer's guidelines and analyzed by unconstrained 4-parameter logistic fit of data, curve mid-point to determine EC50.

Molecule | x change
B1 | 2.4

Same assay, conditions: Table 18

Molecule | Potency at huGLP-1R in cAMP assay (M)
B2 | Inactive
B3 | Inactive
B4 | Inactive

Same assay, conditions: Table 18; maximum activation compared to GLP-1

Molecule | % Max Effect
B5 | 10%
B6 | 73%
B7 | 86%
B8 | 31%
B9 | 87%
B10 | 69%
B11 | 95%
B12 | 94%
B13 | 93%
B2 | Inactive
B3 | Inactive
B14 | 82%
B15 | 67%
B16 | 87%
B4 | Inactive
B17 | 60%
B18 | 44%
B19 | 34%
B20 | 90%
B21 | 87%
